Assay results as given in the DeepSol protein solubility set.

Assay: soluble on expression in E. coli; label from the status in PepcDB or PDB records

Question: Which “soluble on expression in E. coli” value does the source give for “MSLNGSMVYGDFIRNQEVRKRITKEELGIEEDEIPERVVVTPMPFNTQFPKNFEDTLTNLGIKVNRLKVEDQILRQFGGNLLLEKDGNRGFIAFIGRGLIDFTERIRILATVSRIKDILFIGTAGSLSNEILIGDLNIPKYAIPFENVSDFYADPTIAIPQADEKLLNEVYEYAEETGVKTHSTLHATLLFPYSETTEFLNYLLNIGVSTIDMEVSAFYKMSRFYGKRAVAVLRISDMPLIELHKQEELIKARREIAVNAVFRITLRFLKLEGHHHHHH” here?
Answer: Its value is “soluble”.

Question: With “MSLNHTAVNTAQAIILRDLVDALLFEDIAGIVSNSEITKENGQTLLIYERETQQIKIPVYFSALNMFRYESSQPITIEGRVSKQPLTAAEFWQTIANMNCDLSHEWEVARVEEGLTTAATQLAKQLSELDLASHPFVMSEQFASLKDRPFHPLAKEKRGLREADYQVYQAELNQSFPLMVAAVKKTHMIHGDTANIDELENLTVPIKEQATDMLNDQGLSIDDYVLFPVHPWQYQHILPNVFAKEISEKLVVLLPLKFGDYLSSSSMRSLIDIGAPYNHVKVPFAMQSLGALRLTPTRYMKNGEQAEQLLRQLIEKDEALAKYVMVCDETAWWSYMGQDNDIFKDQLGHLTVQLRKYPEVLAKNDTQQLVSMAALAANDRTLYQMICGKDNISKNDVMTLFEDIAQVFLKVTLSFMQYGALPELHGQNILLSFEDGRVQKCVLRDHDTVRIYKPWLTAHQLSLPKYVVREDTPNTLINEDLETFFAYFQTLAVSVNLYAIIDAIQDLFGVSEHELMSLLKQILKNEVATISWVTTDQLAVRHILFDKQTWPFKQILLPLLYQRDSGGGSMPSGLTTVPNPMVTYDEGHHHHHH” as the sequence, how does the “soluble on expression in E. coli” value read?
Answer: Its value is “soluble”.

Question: For “MSLNISFIASNTLHELAAFLEKLNNIREHHVGFCGEKGSEIKATLERDFSDIGVSKSFIVGYDGMEIKGAVGLDVDTKEESAEVWGPFVDEDDPEMWLDTATILWQQLIDSLTVPVSTFQFFINQHNVNAKKFILKLNGMEKGDHDILTCDRTQFYPPLNHDVRLFTNNHTQSFKKLHDSLFPQTYYDAEEILKKINEPTNKLLIIEKEQIVIGYAYVEVEPEHGEGQIEYIGIAPDYRRQGLATQLLTNALHVLFSYPTVEDITLCVSKQNTKAIRLYQAAGFKKERQLTYFELNVDGLDNRRGRGEGHHHHHH”, which “soluble on expression in E. coli” value is on record?
Answer: The value was “soluble”.

Question: For “MSLNIYRAASVLIDEAGKNDFEISLLGKVNDLVYDTKNEYLYAVSQKGLLAKLNASNGDVIWRQSIAPETSQLNYNPVTNFIITVDKDYLYIWNSKNGILDRKIELADGKGKLFEVNKGFVYLNPHTRKFIELDLQASFSISIERDLQLDAISFLTYAEKNYVLFKRDGQFVLQALDHNYAVYGPETVLNVPENAQLLVTEKDVIIYSSNGVIYGIHVSMADISQLLIDEYKTFEWSSIPGKRHGYSITVDSQSTPVTYLFVIIDSEFVLIDEYIHEDTEALGYIHMEDNQTFSRVFAVANQIKFAPATVITIPNQLSRPVFRLFTFAEGEISAIVILDDGTFFSFSNTELVWKREEALAYAINPSILPTTLLTSYQKSIQDEENSSEGHHHHHH”, which “soluble on expression in E. coli” value is on record?
Answer: Its value is “soluble”.

Question: Which “soluble on expression in E. coli” value does the source give for “MSLNKIIHHYEVFKDFYGMEEPIEQIVGFLKHAAQGLEETKQVLYLLGPVGGGKSSIAEKLKDLMERIPFYAIKGSPVFESPLSLFNPLEDGELLRERFGIPTRYLRYLMSPWAVKRLQEYNGDISKFRVIKVKPSRLKQIAIAKTEPGDENNQDISSLVGKVDIRKLEEFSQDDPDAYSYSGGLCRANRGLLEFVEMFKAPIKVLHPLLTATQEGNYNATEGLSAIPFEGIILAHSNESEWQSFRNNKNNEAFIDRINIVKVPYCLRVSEEIKIYQKLIHNSSLANAPCAPGTLDMLAQFSVLTRLKEPQNSSIYSKMRVYNGESLKDTDPKAKSYQEYRDFAGVDEGMSGISTRFAFKILSKVFNFDHTEVAANPVHLMYVLERQIEQEQFPQELHETYLNFIKEYLATKYVDFIGKEIQTAYLESYSEYGQNIFDRYITYADFWIQDQDYRDPDTGEIFDRALLNLELEKIEKPAGISNPKDFRNEVVNFVLRARANNRGKNPVWNSYEKLKSVIEKKMFTNTEDLLPVISFNAKASEEDKKKHEEFISRMVEKGYTRKQVRLLCEWYLRVRKSQEGHHHHHH” here?
Answer: The value was “not soluble”.

Question: Which “soluble on expression in E. coli” value does the source give for “MSLNKLCMYLERPELYKQSEINFWDDEYISKQLLKAHLDTNFEGASRNFNFIEDSVNWIVTVANPANYPKLLDLGCGPGLYAEKFAQKGYKVTGIDFSKRSINYAQNRNKETNLNINYLFQSYLNMNYNEEFDLATLIYCDYGALSTENRRLLMEKIYDSLKPGGKLILDVFTINKYNNFEEIKYWEINEDGGFWSNEKYMCLQDNCKYNDYNTLEQTLVITEKDENVFYVWNHYFSKESFLLEVENIGFKSVEFFSNVKGEAYSDDSMTMGLVLQKEGHHHHHH” here?
Answer: The value was “soluble”.
